The values below come from paper PMC11024197 (Nature Communications, 2024).

B1: PEX5 W5 peptide (peptide)
peptide: AQAEQWAAEFIQQQG
notes: 15-mer with the W5 (di)aromatic motif of human PEX5; source: synthetic peptide, bought: PSL (Peptide Specialty Laboratories GmbH)
B2: PEX5 W1 peptide (peptide)
peptide: ALSENWAQEFLAAGD
notes: 15-mer with the W1 (di)aromatic motif of human PEX5; source: synthetic peptide, bought: PSL (Peptide Specialty Laboratories GmbH)
B3: PEX13-CTR double cysteine mutant I333C/A376C (IA/CC) (domain or fragment, human, UniProt Q92968 261-403, looked up)
chain: VTDSINWASGEDDHVVARAEYDFAAVSEEEISFRAGDMLNLALKEQQPKVRGWLLASLDGQTTGLIPANYVKCLGKRKGRKTVESSKVSKQQQSFTNPTLTKGATVADSLDEQEACFESVFVETNKVPVAPDSIGKDGEKQDL
notes: the two states are told apart by the assay; 15N-labelled; also called PEX13 CTR IA/CC; PEX13-CTR IA/CC; source: E. coli BL21 (DE3), purified (Ni-NTA, SUMO cleavage, reverse Ni-NTA, SEC); not shown: His6-SUMO, N-terminal, cleaved
B4: PEX13 FxxxF peptide (residues 350-403) (domain or fragment, human, UniProt Q92968 350-403, looked up)
chain: KQQQSFTNPTLTKGATVADSLDEQEAAFESVFVETNKVPVAPDSIGKDGEKQDL
notes: also called Pex13_FxF; source: E. coli BL21 (DE3), purified (Ni-NTA, SUMO cleavage, reverse Ni-NTA, SEC)
B5: PEX13 SH3 domain (residues 261-346) (domain or fragment, human, UniProt Q92968 261-346, looked up)
chain: VTDSINWASGEDDHVVARAEYDFAAVSEEEISFRAGDMLNLALKEQQPKVRGWLLASLDGQTTGLIPANYVKILGKRKGRKTVESS
notes: 15N-labelled in the NMR titrations, unlabelled in ITC; source: E. coli BL21 (DE3), purified (Ni-NTA, SUMO cleavage, reverse Ni-NTA, SEC); not shown: His6-SUMO, N-terminal, cleaved
B6: PEX13 SH3 domain (domain or fragment, human)
chain: B5 chain
notes: the SH3-CTR construct begins at 261 and the crystallised chimeras end the SH3 part at 346; source: E. coli BL21 (DE3), purified (Ni-NTA, SUMO cleavage, reverse Ni-NTA, SEC)
B7: PEX5 W6 peptide (peptide)
peptide: GTSDAWVDQFTRPVN
notes: 15-mer with the W6 WxxxF motif of human PEX5; source: synthetic peptide, bought: PSL (Peptide Specialty Laboratories)
B8: PEX5 W6 peptide (peptide)
peptide: GTSDAWVDQFTRPVN
notes: 15-mer with the W6 (di)aromatic motif of human PEX5; source: synthetic peptide, bought: PSL (Peptide Specialty Laboratories GmbH)
B9: PEX5 W7 peptide (peptide)
peptide: AEAHPWLSDYDDLTS
notes: 15-mer with the W7 (di)aromatic motif of human PEX5; source: synthetic peptide, bought: PSL (Peptide Specialty Laboratories GmbH)
B10: PEX14 NTD (1-104) (domain or fragment, human, UniProt O75381 1-104, looked up)
chain: MASSEQAEQPSQPSSTPGSENVLPREPLIATAVKFLQNSRVRQSPLATRRAFLKKKGLTDEEIDMAFQQSGTAADEPSSLGPATQVVPVQPPHLISQPYSPAGS
notes: human PEX14, N-terminal domain, residues 1-104; also called PEX14 1-104; source: E. coli BL21 (DE3), purified (Ni-NTA, SUMO cleavage, reverse Ni-NTA, SEC); not shown: His6-SUMO, N-terminal, cleaved
B11: PEX14 NTD (1-104) (domain or fragment, human, UniProt O75381 1-104, looked up)
chain: B10 chain
notes: human PEX14 N-terminal domain, residues 1-104; also called PEX14 (1-104); source: E. coli BL21 (DE3), purified (Ni-NTA, SUMO cleavage, reverse Ni-NTA, SEC)
B12: PEX13 C-terminal peptide (351-403) with WT FxxxF motif (peptide)
chain: YGGQQQSFTNPTLTKGATVADSLDEQEAAFESVFVETNKVPVAPDSIGKDGEKQDL
notes: three residues added before residue 351; main text and some legends say 350-403; also called PEX13 FxxxF; FxxxF peptide (350-403); source: E. coli BL21 (DE3), purified (Ni-NTA, SUMO cleavage, reverse Ni-NTA, SEC); not shown: His6-SUMO, N-terminal, cleaved
B13: PEX13 C-terminal peptide (351-403) with the FxxxF motif replaced by the PEX5 W4 motif (peptide)
chain: B12 chain with F30W, E31Y, S32D, V33E, F34Y
notes: three residues added before residue 351; also called FF/W4; source: E. coli BL21 (DE3), purified (Ni-NTA, SUMO cleavage, reverse Ni-NTA, SEC); not shown: His6-SUMO, N-terminal, cleaved
B14: PEX5 W5 peptide (peptide)
peptide: AQAEQWAAEFIQQQG
notes: 15-mer with the W5 WxxxF motif of human PEX5; source: synthetic peptide, bought: PSL (Peptide Specialty Laboratories)
B15: PEX5 W1 peptide (peptide)
peptide: ALSENWAQEFLAAGD
notes: 15-mer with the W1 WxxxF motif of human PEX5; source: synthetic peptide, bought: PSL (Peptide Specialty Laboratories)
B16: PEX5 W7 peptide (peptide)
peptide: AEAHPWLSDYDDLTS
notes: 15-mer with the W7 WxxxY motif of human PEX5; source: synthetic peptide, bought: PSL (Peptide Specialty Laboratories)

Changes are numbered by the printed parent chain. Names may count otherwise. “And” between values parts separate entries of the source, which are not always exact repeats. Equal values may be shown once.

What all share (settings): both partners purified
In experiment [1] the target is B10. In words: ITC; PEX14 NTD (1-104) (20-60 µM) in the cell, titrated with PEX5 W peptides or W0 (0.4-0.6 mM), PEX13 FxxxF (0.46 mM) or PEX13 SH3-CTR (1 mM); 25 °C; 20 mM Tris pH 7.5, 50 mM NaCl; one-site binding model; PEX14 concentration corrected with the fit; triplicates. A general note: Isothermal titration calorimetry measures the heat released or taken up as one component is titrated into another.

Experiment [2] has as its target T1, PEX5 W4 peptide (human).
T1 construct: source: synthetic peptide, bought: PSL (Peptide Specialty Laboratories GmbH)
The experiment in a line: NMR titration; reduced (2 mM TCEP) 15N PEX13-CTR IA/CC with 4x and 8x PEX5 W4; 1H,15N correlation spectra.

Experiment [3] concerns the target T2, PEX14 NTD (1-104) (human, UniProt O75381 1-104).
T2 construct: human PEX14 (UniProtKB O75381), N-terminal domain, residues 1-104; also called PEX14 (1-104); source: E. coli BL21 (DE3), purified (Ni-NTA, SUMO cleavage, reverse Ni-NTA, SEC)
The experiment in a line: ITC; PEX14 (1-104) (20-60 uM, concentration corrected with the fit) in the cell, peptide or fragment in the syringe; 25 °C, 20 mM Tris pH 7.5, 50 mM NaCl; one-site binding model; single runs of triplicates and their averages.

The experiment “PEX13 SH3 domain” addresses B6. In words: ITC; PEX13 SH3 (35-48 uM) in the cell, peptide or fragment in the syringe; 25 °C, 20 mM Tris pH 7.5, 50 mM NaCl; one-site binding model; single runs of triplicates and their averages.
For experiment [4], the target named is T3, PEX5 W3 peptide (human).
T3 construct: 15-mer with the W3 (di)aromatic motif of human PEX5; source: synthetic peptide, bought: PSL (Peptide Specialty Laboratories GmbH)
The experiment in a line: ITC; PEX13 SH3 (35-48 µM) in the cell, titrated with peptide; 25 °C; 20 mM Tris pH 7.5, 50 mM NaCl; one-site binding model; triplicates.

For experiment [5], the target named is T4, PEX5 W4 peptide (human).
T4 construct: 15-mer with the W4 WxxxY motif of human PEX5 (R183, Y185, Y188 are named in the text); source: synthetic peptide, bought: PSL (Peptide Specialty Laboratories)
The experiment in a line: ITC; PEX13 SH3 (35-48 uM) in the cell, peptide or fragment in the syringe; 25 °C, 20 mM Tris pH 7.5, 50 mM NaCl; one-site binding model; single runs of triplicates and their averages.

The target in experiment [6] is T5, PEX5 W3 peptide (human).
T5 construct: 15-mer with the W3 WxxxY motif of human PEX5; source: synthetic peptide, bought: PSL (Peptide Specialty Laboratories)
Described as above.

Experiment [7] addresses T6, PEX5 W2 peptide (human).
T6 construct: 15-mer with the W2 WxxxF motif of human PEX5; source: synthetic peptide, bought: PSL (Peptide Specialty Laboratories)
Described as above.

Experiment [8] concerns the target T7, PEX5 W2 peptide (human).
T7 construct: 15-mer with the W2 (di)aromatic motif of human PEX5; source: synthetic peptide, bought: PSL (Peptide Specialty Laboratories GmbH)
The experiment in a line: ITC; PEX14 NTD (1-104) (20-60 µM) in the cell, titrated with PEX5 W peptides or W0 (0.4-0.6 mM), PEX13 FxxxF (0.46 mM) or PEX13 SH3-CTR (1 mM); 25 °C; 20 mM Tris pH 7.5, 50 mM NaCl; one-site binding model; PEX14 concentration corrected with the fit; triplicates.

The target in experiment [9] is T3, PEX5 W3 peptide. The experiment is described as above.
Experiment [10] concerns the target T1, PEX5 W4 peptide. The experiment is described as above.
In experiment [11] the target is T8, PEX5 W4 peptide (human).
T8 construct: 15-mer with the W4 WxxxY motif of human PEX5 (R183, Y185, Y188 printed); also called PEX5 W4 motif; source: synthetic peptide, bought: PSL (Peptide Specialty Laboratories)
In words: ITC; PEX14 (1-104) at 20-60 µM titrated with PEX5 W peptides or W0 (0.4-0.6 mM), PEX13 FxxxF (0.46 mM) or PEX13 SH3-CTR (1 mM); 25 °C; 20 mM Tris pH 7.5, 50 mM NaCl; one-site model; PEX14 concentration corrected with the fit; triplicates.

Experiment [12] has as its target T9, PEX13 SH3-CTR (residues 261-403) (human, UniProt Q92968 261-403).
T9 construct: 15N-labelled in the NMR titrations, unlabelled as ITC titrant; source: E. coli BL21 (DE3), purified (Ni-NTA, SUMO cleavage, reverse Ni-NTA, SEC); not shown: His6-SUMO, N-terminal, cleaved
T9 sequence (looked up): B3 chain with C73I, C116A
In words: NMR titration; 15N-labelled PEX13 construct (100 µM reference) with unlabelled ligand added; 1H,15N correlation spectra; 298 K; 20 mM Tris pH 7.5, 50 mM NaCl.

Experiment [13] has as its target B5. The experiment is described as above.
Experiment [14] has as its target B5. In words: ITC; PEX13 SH3 (35-48 µM) in the cell, titrated with peptide; 25 °C; 20 mM Tris pH 7.5, 50 mM NaCl; one-site binding model; triplicates.

Take B1: in the experiment with PEX14 NTD (1-104) [1], the equilibrium dissociation constant (Kd) was determined as 0.0205 µM and the “stoichiometry N” value was found to be 1.

With B2, in the experiment with PEX14 NTD (1-104) [1], binding was put at a Kd of 0.0723 µM and the “stoichiometry N” value was determined as 1.

In the case of B3, the binding result in the experiment with PEX5 W4 peptide [2] is “binds”. With B4, in the experiment with PEX14 NTD (1-104) [3], the Kd was 3.09 µM and 2.23 µM and 3.08 µM; the “stoichiometry N” value stood at 1 sites. In the experiment with PEX13 SH3 domain, the Kd was 21.4 µM and 32.4 µM and 27 µM; the “stoichiometry N” value is 1 sites. B5 came in with a Kd with PEX5 W3 peptide [4] of 102 µM. As to B6, the Kd in the experiment with PEX5 W4 peptide [5] was 44.9 µM and 48.5 µM and 36.9 µM; in the experiment with PEX5 W3 peptide [6] it was 112 µM and 92.3 µM; with PEX5 W2 peptide [7], 88.8 µM and 86.8 µM and 88.6 µM. For B7, in the experiment with PEX14 NTD (1-104) [3], the “stoichiometry N” value was 1 sites. On to B8, for which the “stoichiometry N” value with PEX14 NTD (1-104) [1] stood at 1. The same measure, in the same setting: in the case of B9 it was 1. Regarding B10, the Kd stood at 0.0736 µM in the experiment with PEX5 W2 peptide [8], 0.137 µM with PEX5 W3 peptide [9] and 3.14 µM with PEX5 W4 peptide [10]. With B11, the Kd with PEX5 W4 peptide [11] is 3.14 µM. In other words, the single-digit micromolar range. Take TRVPPPILPRPSQ (peptide, UniProt Q92968 49-61, looked up) [PEX13 PxxP peptide (49-61)]: the binding result in [12] and in experiment [13] was “binds” throughout. With B12, in [14], the Kd is 26.9 µM and the “stoichiometry N” value is 1. Regarding B13, in experiment [14], binding was put at a Kd of 6.4 µM and the “stoichiometry N” value worked out at 1. For B14, in the experiment with PEX14 NTD (1-104) [3], the Kd is 0.0172 µM and 0.0188 µM and 0.0255 µM and 0.0205 µM; the “stoichiometry N” value was 1 sites.

For the molecule B15, in the experiment with PEX14 NTD (1-104) [3], the Kd is 0.0751 µM and 0.0626 µM and 0.0791 µM and 0.0723 µM; the “stoichiometry N” value amounted to 1 sites. Take B16: the “stoichiometry N” value with PEX14 NTD (1-104) [3] turned out to be 1 sites.

As a reminder, the Kd is the constant that tells how readily two partners part at equilibrium. A higher Kd goes with lower affinity. As usually defined, the stoichiometry N is the number of molecules, sites or subunits per partner or assembly.
